Results taken from patent US12072338B2, “Pharmaceutical peptides for the treatment of inflammatory diseases” (PROTAGONISTS LTD., priority 2007, dated 2024).

Key:
[1] = target: T1, GRO-β (Homo sapiens, UniProt P19875); experiment: Micro-array analysis of chemokine binding peptides: GRO-β; settings: limit = start of the upper 75% of that peptide's response range
T1 construct: purchased 300-39
T1 sequence (P19875 35-107): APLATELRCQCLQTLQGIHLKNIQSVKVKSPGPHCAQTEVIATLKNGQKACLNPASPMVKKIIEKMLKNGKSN
Procedure: (§1) (1) Printing: Chemokine (CK) solution (in water) was serially diluted with Print Reagent (GenTel BioSurfaces USA) to final concentrations of 50 μg and 25 μg/ml. BSA/BSA-Biotin control solutions (in water) were diluted with Print Reagent to 100 μg/ml. Amplified stock of M13 phage control (M13KEgIII Cloning Vector, New England Biolabs, Cat.No.E8101S) was stored in Tris Buffered Saline (TBS; pH7.5, 4° C.) and diluted with Print Reagent to the working titre (10^8 pfu/μl). An automated spotting robot (16 pin print tool, 0.4 mm head; BioRobotics, UK) was used to print the CK/BSA control/M13 control, 5 repeats per sample (CK 25 μg/ml and 50 μg/ml; BSA 100 μg/ml; M13 20 μl), on PATH Protein Microarray Slides (GenTel, Prod.No. 2-1005/-1025) at […], and 50-70% relative humidity. Printed micro-array slides were stored at Room Temperature (RT) or 4° C. for at least 24 h before use.
(§2) (2) Blocking: Block Buffer (500 μl/partition; PATHblock, GenTel, Prod.No. 2-1014) was applied to the slide for 1 hour at room temp (RT). After removal of Block Buffer, the slide was air dried for 25 minutes;
(§3) (3) Phage Presented Peptide Binding: Amplified recombinant phage stock was stored in TBS and diluted with Wash Buffer to working titer (10^7 pfu/μl). Recombinant phage suspension (300 μl) was applied per partition and incubated at RT for 1 hour with gentle agitation.
(§4) (4) First Washing: The slides were washed twice with Wash Buffer 300 μl/partition).
(§5) (5) Primary Antibody (Ab) Labeling: The slides were incubated with the Primary Ab (1 mg/ml diluted ×2500 (Wash Reagent), 300 μl; Mouse Anti-M13 monoclonal Ab; Amersham Biosciences, UK; Product Code 27-9420-01) for 45 minutes at RT.
(§6) (6) Second Washing: The slides were washed twice with Wash Buffer (300 μl/partition).
(§7) (7) Secondary Ab Labeling: The slides were incubated with Secondary Ab (1.5 mg/ml diluted ×5000 (Wash Reagent), 300 μl; Cy3-conjugated AffiniPure Goat Anti-Mouse IgG; Jackson ImmunoReserch Labs, USA; Product Code 115-165-062).
(§8) (8) Third Washing: The slides were washed twice with Wash Buffer (300 μl/partition).
(§9) (9) Rinse: the slides were rinsed twice with Rinse Buffer (PATHrinse, GenTel, Prod.No. 2-1018) then dried well.
(§10) (10) Scanning: The peptide-bound, labeled slide was scanned (Laser Intensity 80%, Gain 80%, Resolution 10 μm) with a ScanArray Life Scanner (Packard BioChip Technologies, USA).
(§11) (11) Analysis: Quantitative analysis of micro-array was performed by the SpotReader program of Niles Scientific (USA) and presented as Relative Fluorescence (RF) as a function of CK concentration. Micro-array readout (Cy3 fluorescence) was quantified to determine the relative binding affinities of a CBP for the CKs and by inference, the specificity of the CBP for binding to a CK.

[2] = test system: IL-8; experiment: Micro-array analysis of chemokine binding peptides: IL-8; settings: limit = start of the upper 75% of that peptide's response range
Chain of IL-8 (P10145 28-99 limits assumed): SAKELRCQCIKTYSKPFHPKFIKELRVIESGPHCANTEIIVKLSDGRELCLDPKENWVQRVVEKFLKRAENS
Procedure: as §1, §2, §3, §4, §5, §6, §7, §8, §9, §10, §11

[3] = target: T2, Mig (Homo sapiens, UniProt Q07325); experiment: Micro-array analysis of chemokine binding peptides: Mig; settings: limit = start of the upper 75% of that peptide's response range
T2 construct: purchased 300-26
T2 sequence (Q07325 23-125): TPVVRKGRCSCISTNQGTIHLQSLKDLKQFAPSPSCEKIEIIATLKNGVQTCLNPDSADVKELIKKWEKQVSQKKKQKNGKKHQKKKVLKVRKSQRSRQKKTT
Procedure: as §1, §2, §3, §4, §5, §6, §7, §8, §9, §10, §11

[4] = target: T3, I-TAC (Homo sapiens, UniProt O14625); experiment: Micro-array analysis of chemokine binding peptides: I-TAC; settings: limit = start of the upper 75% of that peptide's response range
T3 construct: purchased 300-46
T3 sequence (O14625 22-94): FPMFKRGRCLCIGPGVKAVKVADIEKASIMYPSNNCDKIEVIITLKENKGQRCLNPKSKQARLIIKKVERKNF
Procedure: as §1, §2, §3, §4, §5, §6, §7, §8, §9, §10, §11

[5] = target: T4, I-309 (Homo sapiens, UniProt P22362); experiment: Micro-array analysis of chemokine binding peptides: I-309; settings: limit = start of the upper 75% of that peptide's response range
T4 construct: purchased 300-37
T4 sequence (P22362 24-96): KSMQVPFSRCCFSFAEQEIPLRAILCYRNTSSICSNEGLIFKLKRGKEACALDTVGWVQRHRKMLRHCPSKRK
Procedure: as §1, §2, §3, §4, §5, §6, §7, §8, §9, §10, §11

[6] = target: T5, MCP-2 (Homo sapiens, UniProt P80075); experiment: Micro-array analysis of chemokine binding peptides: MCP-2; settings: limit = start of the upper 75% of that peptide's response range
T5 construct: purchased 300-15
T5 sequence (P80075 24-99): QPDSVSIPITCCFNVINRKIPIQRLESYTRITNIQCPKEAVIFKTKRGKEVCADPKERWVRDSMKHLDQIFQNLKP
Procedure: as §1, §2, §3, §4, §5, §6, §7, §8, §9, §10, §11

[7] = target: T6, MCP-4 (Homo sapiens, UniProt Q99616); experiment: Micro-array analysis of chemokine binding peptides: MCP-4; settings: limit = start of the upper 75% of that peptide's response range
T6 construct: purchased 300-24
T6 sequence (Q99616 17-98): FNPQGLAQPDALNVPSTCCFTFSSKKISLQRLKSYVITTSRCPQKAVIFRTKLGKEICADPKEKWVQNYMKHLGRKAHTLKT
Procedure: as §1, §2, §3, §4, §5, §6, §7, §8, §9, §10, §11

[8] = target: T7, RANTES (Homo sapiens, UniProt P13501); experiment: Micro-array analysis of chemokine binding peptides: RANTES; settings: limit = start of the upper 75% of that peptide's response range
T7 construct: purchased 300-06
T7 sequence (P13501 24-91): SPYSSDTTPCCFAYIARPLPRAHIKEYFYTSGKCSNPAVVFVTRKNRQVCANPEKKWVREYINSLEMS
Procedure: as §1, §2, §3, §4, §5, §6, §7, §8, §9, §10, §11

[9] = target: T8, Eotaxin (Homo sapiens, UniProt P51671); experiment: Micro-array analysis of chemokine binding peptides: Eotaxin; settings: limit = start of the upper 75% of that peptide's response range
T8 construct: purchased 300-21
Procedure: as §1, §2, §3, §4, §5, §6, §7, §8, §9, §10, §11

[10] = target: T9, Eotaxin 2 (Homo sapiens, UniProt O00175); experiment: Micro-array analysis of chemokine binding peptides: Eotaxin 2; settings: limit = start of the upper 75% of that peptide's response range
T9 construct: purchased 300-33
T9 sequence (O00175 27-119): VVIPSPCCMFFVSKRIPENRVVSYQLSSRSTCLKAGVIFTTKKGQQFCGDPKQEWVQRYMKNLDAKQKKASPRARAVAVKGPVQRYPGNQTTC
Procedure: as §1, §2, §3, §4, §5, §6, §7, §8, §9, §10, §11

[11] = target: T10, Eotaxin 3 (Homo sapiens, UniProt Q9Y258); experiment: Micro-array analysis of chemokine binding peptides: Eotaxin 3; settings: limit = start of the upper 75% of that peptide's response range
T10 construct: purchased 300-48
T10 sequence (Q9Y258 24-94): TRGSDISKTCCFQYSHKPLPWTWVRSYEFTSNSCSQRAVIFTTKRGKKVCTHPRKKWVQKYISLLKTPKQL
Procedure: as §1, §2, §3, §4, §5, §6, §7, §8, §9, §10, §11

[12] = target: T11, SDF1-α (Homo sapiens, UniProt P48061); experiment: Micro-array analysis of chemokine binding peptides: SDF1-α
T11 construct: purchased 300-28a
T11 sequence (P48061 22-89 limits assumed): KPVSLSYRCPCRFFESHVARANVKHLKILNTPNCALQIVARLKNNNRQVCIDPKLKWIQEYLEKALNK
Procedure: as §1, §2, §3, §4, §5, §6, §7, §8, §9, §10, §11

[13] = target: T12, SDF1-β (Homo sapiens, UniProt P48061); experiment: Micro-array analysis of chemokine binding peptides: SDF1-β
T12 construct: purchased 300-28b
T12 sequence (P48061 22-93): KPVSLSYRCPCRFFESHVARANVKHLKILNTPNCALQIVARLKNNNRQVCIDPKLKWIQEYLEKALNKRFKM
Procedure: as §1, §2, §3, §4, §5, §6, §7, §8, §9, §10, §11

[14] = target: T13, BCA-1 (Homo sapiens, UniProt O43927); experiment: Micro-array analysis of chemokine binding peptides: BCA-1
T13 construct: purchased 300-47
T13 sequence (O43927 23-109): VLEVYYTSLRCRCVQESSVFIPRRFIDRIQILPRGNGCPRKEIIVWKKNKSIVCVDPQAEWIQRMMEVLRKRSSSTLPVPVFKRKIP
Procedure: as §1, §2, §3, §4, §5, §6, §7, §8, §9, §10, §11

[15] = target: T14, TECK (Homo sapiens, UniProt O15444); experiment: Micro-array analysis of chemokine binding peptides: TECK
T14 construct: purchased 300-45
T14 sequence (O15444 24-150): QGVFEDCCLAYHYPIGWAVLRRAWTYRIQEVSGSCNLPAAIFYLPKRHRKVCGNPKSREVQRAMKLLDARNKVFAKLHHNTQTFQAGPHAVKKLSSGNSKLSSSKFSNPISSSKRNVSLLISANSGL
Procedure: as §1, §2, §3, §4, §5, §6, §7, §8, §9, §10, §11

[16] = target: T15, Fractalkine (Homo sapiens, UniProt P78423); experiment: Micro-array analysis of chemokine binding peptides: Fractalkine
T15 construct: purchased 300-31
T15 sequence (P78423 25-100 limits assumed): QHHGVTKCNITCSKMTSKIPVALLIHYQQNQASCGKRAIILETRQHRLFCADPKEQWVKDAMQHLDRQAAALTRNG
Procedure: as §1, §2, §3, §4, §5, §6, §7, §8, §9, §10, §11

[17] = target: T16, Lymphotactin (Homo sapiens, UniProt P47992); experiment: Micro-array analysis of chemokine binding peptides: Lymphotactin
T16 construct: purchased 300-20
T16 sequence (P47992 22-114): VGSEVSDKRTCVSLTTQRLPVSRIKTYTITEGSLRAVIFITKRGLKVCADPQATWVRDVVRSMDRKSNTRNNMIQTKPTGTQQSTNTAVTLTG
Procedure: as §1, §2, §3, §4, §5, §6, §7, §8, §9, §10, §11

[18] = target: T17, Exodus-2 (Homo sapiens, UniProt O00585); experiment: Micro-array analysis of chemokine binding peptides: Exodus-2
T17 construct: purchased 300-35
T17 sequence (O00585 24-134): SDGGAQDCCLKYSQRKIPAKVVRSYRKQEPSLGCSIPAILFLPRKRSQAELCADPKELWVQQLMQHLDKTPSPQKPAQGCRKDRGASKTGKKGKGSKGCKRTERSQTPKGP
Procedure: as §1, §2, §3, §4, §5, §6, §7, §8, §9, §10, §11

binding to GRO-β with relatively high affinity (Relative Fluorescence Units) [1]: > 10,000 RFU
binding to IL-8 with relatively high affinity (Relative Fluorescence Units) [2]: > 10,000 RFU
binding to Mig with relatively high affinity (Relative Fluorescence Units) [3]: > 10,000 RFU
binding to I-TAC with relatively high affinity (Relative Fluorescence Units) [4]: > 10,000 RFU
binding to I-309 with relatively high affinity (Relative Fluorescence Units) [5]: > 10,000 RFU
binding to MCP-2 with relatively high affinity (Relative Fluorescence Units) [6]: > 10,000 RFU
binding to MCP-4 with relatively high affinity (Relative Fluorescence Units) [7]: > 10,000 RFU
binding to RANTES with relatively high affinity (Relative Fluorescence Units) [8]: > 10,000 RFU
binding to Eotaxin with relatively high affinity (Relative Fluorescence Units) [9]: > 10,000 RFU
binding to Eotaxin 2 with relatively high affinity (Relative Fluorescence Units) [10]: > 10,000 RFU
binding to Eotaxin 3 with relatively high affinity (Relative Fluorescence Units) [11]: > 10,000 RFU
binding to SDF1-α, stated in words [12]: bound
binding to SDF1-β, stated in words [13]: bound
binding to BCA-1, stated in words [14]: bound
binding to TECK, stated in words [15]: bound
binding to Fractalkine, stated in words [16]: bound
binding to Lymphotactin, stated in words [17]: bound
binding to Exodus-2, stated in words [18]: bound
Substance: DYDY (listed as Homo sapiens) [Ph-p32]
